Assay results reported in US20210261643A1, “INHIBITORS OF P-TEFB MEDIATED TRANSCRIPTION” (The Regents of the University of California, priority 2018, published 2021).

Test system: Tat-dependent gene expression from the HIV promoter
Experiment: Luciferase reporter assay, pLTR-Luc co-transfected with pTat and pHT in 293T cells
Assay type: cell-based
Details: 293T cells, pHT:pTat ratio 2:1
Excerpt: FIGS. 2A, 2B, and 2C. A HEXIM1-Tat fusion peptide inhibits gene expression from the HIV promoter. FIG. 2A. Structure of the HEXIM1-Tat fusion peptides used in the study. The functional domains used from HEXIM1 and Tat include a HEXIM1 Arginine Rich Motif (ARM, black box, residues 150-162) that binds RNA, a HEXIM1 inhibitory domain (ID, light grey box, residues 200-211) that inhibits CDK9 through a PYNT motif, and Tat transactivation domain (AD, dark grey box, residues 1-48) that binds to P-TEFb. The conceptual schemes are not drawn to scale. FIG. 2B. Transient expression of HT1 inhibits Tat-induced LTR-driven Luc expression. Upper panel: a schema depicts the reporter assay. A luciferase reporter gene (Luc) is under the control of the HIV promoter (P-HIV) and can be activated by ectopically expressed Tat. The Luc assay was used to titrate the inhibitory effect of HT1-3 on P-HIV transactivation by Tat. Middle panel: increasing amounts of m:HT1, m:HT2 or m:HT3 expressing plasmid (pHT) were co-transfected in 293T cells with a plasmid (pTat) expressing f:Tat and another (pLTR-Luc) expressing Luc under the control of the HIV promoter. Luc activity was plotted as % activity relative to control (empty vector used instead of pHT), depending on the transfected pHT:pTat ratio. Error bars in the graph represent standard deviation from triplicate experiments. FIG. 2C. Transient expression of HT1 inhibits Luc expression from HIV-1 NL43ΔenvLuc. Top schema depicts the reporter assay. A luciferase reporter gene (Luc) is inserted in a replication-defective HIV-1 molecular clone (pNL43ΔenvLuc) in which Luc and Tat are under the control of the HIV promoter (P-HIV). A Luc assay was used to titrate the inhibitory effect of HT1-3 on P-HIV transactivation by Tat. Bottom: increasing amounts of pHT1 were co-transfected in 293T cells with pNL43ΔenvLuc. Luc activity was plotted as % activity relative to control (empty vector used instead of pHT), depending on the transfected amounts of pHT1. Error bars in the graph represent standard deviation from triplicate experiments.
Luciferase (Luc) reporter assays were performed to titrate the potency of each chimera to inhibit Tat-dependent gene expression from the HIV promoter. Effector plasmids included pHT1-3 and pTat, which respectively expressed a Myc-epitope tag chimera (m:HT1-3) and a Flag-epitope tagged Tat (f:Tat). pHT1, pHT2 or pHT3 was transiently co-transfected in 293T cells with pTat and a Luc reporter gene under the control of the HIV promoter (P-HIV, expressed from the plasmid pLTR-Luc). […] Finally, HT1 lead to a 4-fold decrease in Luc expression at a 2:1 ratio. […] Similar results were obtained when co-transfecting pHT1-3 and pTat in NIH1 cells, which stably carry an LTR-Luc reporter gene. Thus, we selected HT1 for further investigation.

B1: HT1 (protein)
chain: KKKHRRRPSKKKRHWKPYYKLTWEEKKKFDEKQSLRASRIRAEMFAKGQPVAPYNTTQFLMDDHDQEEPDLVDMEPVDPYLEPWKHPGSQPRTACNNCYCKKCCFHCYACFTRKGLGISYG
modifications: left off: small tags and cut ends
In the case of B1, the “decrease in Luc expression from the HIV promoter” value is reported as 4 fold.
